Target: Recombinant human CD38 extracellular domain (amino acids 43–300, hCD38-ECD) (human) (UniProt P28907)
Test: BLI; Octet Red96, room temperature; biotin conjugated hCD38-ECD captured on SA biosensor; scFv in PBS, 0.02% Tween-20, 0.05% BSA, pH 7.4; association 300 s, dissociation 1200 s; 1:1 Langmuir model; for RP02 (biphasic dissociation) only the initial 0-330 s fitted, apparent KD

Kd: 8.6 nM
B1: anti-CD38 scFv antibody RP02 (scFv, V domains shown)
VH: PAQLVESGPGLVKPSGTLSLTCAVSGGSISSSNWWSWVRQPPGKGLEWIGEIYHSGSTNYNPSLKSRVTISVDKSKNQFSLKLSSVTAADTAVYYCAREDYYYYMDVWGKGTTVTVQS
VL: QSVLTQPPSVSAAPGQKVTISCSGSSSNIGNNYVSWYQQLPGTAPKLLIYDNNKRPSGIPDRFSGSKSGTSATLGITGLQTGDEADYYCGTWDSSLSAGVFGGGTKLTVL
